Biological target: His-K62-HA expressed in E. coli without the eukaryotic N-terminal signal sequence (Saccharomyces paradoxus)
Assay: denaturing SDS-PAGE and western blot (heat- and detergent-resistant oligomers); E. coli membrane fractions treated with urea before boiling with gel loading buffer; high molecular weight complex taken apart into discrete oligomers

Substance: His-K62-HA expressed in E. coli without the eukaryotic N-terminal signal sequence (natural protein)
- stoichiometry N: > 9

Source: PMC12691639
